Here are results for five molecules from paper PMC5774749, “Coiled-coil formation of the membrane-fusion K/E peptides viewed by electron paramagnetic resonance” (PLoS ONE, 2018).

*: point of attachment. MTSL = CC1(C)C=C(CS*)C(C)(C)N1[O]

B2: E-SL (peptide)
peptide: Ac-EIAALEKEIAALEKEIAALEKGYC(MTSL)-NH2
SMILES: CC[C@H](C)[C@H](NC(=O)[C@H](CCC(=O)O)NC(C)=O)C(=O)N[C@@H](C)C(=O)N[C@@H](C)C(=O)N[C@@H](CC(C)C)C(=O)N[C@@H](CCC(=O)O)C(=O)N[C@@H](CCCCN)C(=O)N[C@@H](CCC(=O)O)C(=O)N[C@H](C(=O)N[C@@H](C)C(=O)N[C@@H](C)C(=O)N[C@@H](CC(C)C)C(=O)N[C@@H](CCC(=O)O)C(=O)N[C@@H](CCCCN)C(=O)N[C@@H](CCC(=O)O)C(=O)N[C@H](C(=O)N[C@@H](C)C(=O)N[C@@H](C)C(=O)N[C@@H](CC(C)C)C(=O)N[C@@H](CCC(=O)O)C(=O)N[C@@H](CCCCN)C(=O)NCC(=O)N[C@@H](Cc1ccc(O)cc1)C(=O)N[C@@H](CSSCC1=CC(C)(C)N([O])C1(C)C)C(N)=O)[C@@H](C)CC)[C@@H](C)CC
notes: designed coiled-coil zipper peptide E; printed as Ac-(EIAALEK)3-GYC(SL)-NH2, the repeat written out three times; degree of spin labelling around 80%; also called E-peptide, spin labelled at the C-terminus; E-Cys
B4: SL-K (peptide)
peptide: Ac-C(MTSL)KIAALKEKIAALKEKIAALKEGW-NH2
SMILES: CC[C@H](C)[C@H](NC(=O)[C@H](CCCCN)NC(=O)[C@H](CSSCC1=CC(C)(C)N([O])C1(C)C)NC(C)=O)C(=O)N[C@@H](C)C(=O)N[C@@H](C)C(=O)N[C@@H](CC(C)C)C(=O)N[C@@H](CCCCN)C(=O)N[C@@H](CCC(=O)O)C(=O)N[C@@H](CCCCN)C(=O)N[C@H](C(=O)N[C@@H](C)C(=O)N[C@@H](C)C(=O)N[C@@H](CC(C)C)C(=O)N[C@@H](CCCCN)C(=O)N[C@@H](CCC(=O)O)C(=O)N[C@@H](CCCCN)C(=O)N[C@H](C(=O)N[C@@H](C)C(=O)N[C@@H](C)C(=O)N[C@@H](CC(C)C)C(=O)N[C@@H](CCCCN)C(=O)N[C@@H](CCC(=O)O)C(=O)NCC(=O)N[C@@H](Cc1c[nH]c2ccccc12)C(N)=O)[C@@H](C)CC)[C@@H](C)CC
notes: designed coiled-coil zipper peptide K; printed as Ac-C(SL)-(KIAALKE)3-GW-NH2, the repeat written out three times; degree of spin labelling around 80%; also called K-peptide, spin labelled at the N-terminus; Cys-K
B5: K-SL (peptide)
peptide: Ac-KIAALKEKIAALKEKIAALKEGWC(MTSL)-NH2
SMILES: CC[C@H](C)[C@H](NC(=O)[C@H](CCCCN)NC(C)=O)C(=O)N[C@@H](C)C(=O)N[C@@H](C)C(=O)N[C@@H](CC(C)C)C(=O)N[C@@H](CCCCN)C(=O)N[C@@H](CCC(=O)O)C(=O)N[C@@H](CCCCN)C(=O)N[C@H](C(=O)N[C@@H](C)C(=O)N[C@@H](C)C(=O)N[C@@H](CC(C)C)C(=O)N[C@@H](CCCCN)C(=O)N[C@@H](CCC(=O)O)C(=O)N[C@@H](CCCCN)C(=O)N[C@H](C(=O)N[C@@H](C)C(=O)N[C@@H](C)C(=O)N[C@@H](CC(C)C)C(=O)N[C@@H](CCCCN)C(=O)N[C@@H](CCC(=O)O)C(=O)NCC(=O)N[C@@H](Cc1c[nH]c2ccccc12)C(=O)N[C@@H](CSSCC1=CC(C)(C)N([O])C1(C)C)C(N)=O)[C@@H](C)CC)[C@@H](C)CC
notes: designed coiled-coil zipper peptide K; printed as Ac-(KIAALKE)3-GWC(SL)-NH2, the repeat written out three times; degree of spin labelling around 70%; also called K-peptide, spin labelled at the C-terminus

The target in the data set “E-SL” is B2. The experiment in a line: continuous-wave EPR at room temperature; solution; rotation-correlation time of the spin-labelled peptide with and without the unlabelled partner; described in S1 Text. The conditions noted are these: both partners purified.
Data set [1] has as its target B4. The experiment in a line: DEER (double electron-electron resonance); frozen solution, 40 K, 9.7 GHz; PBS with 20% (wt) glycerol; total peptide 0.3 mM, mixtures equimolar; same samples as for cw-EPR; Tikhonov regularization. The conditions noted are these: both partners purified.
The target in data set [2] is B5. Kind of data set: continuous-wave EPR of frozen solution; 120 K, 9.7 GHz; PBS with 20% (wt) glycerol; total peptide 0.3 mM, mixtures equimolar; line broadening against free MTSL, distances from simulation of the spectra. As to conditions: both partners purified.
Data set [3] deals with B5. Kind of data set: continuous-wave EPR at room temperature; solution; rotation-correlation time of the spin-labelled peptide with and without the unlabelled partner; described in S1 Text. The conditions noted are these: both partners purified.
For data set [4], the target named is B4. The description is as above. As to conditions: both partners purified.
Data set [5] deals with the molecule itself. Kind of data set: DEER (double electron-electron resonance); frozen solution, 40 K, 9.7 GHz; PBS with 20% (wt) glycerol; total peptide 0.3 mM, mixtures equimolar; same samples as for cw-EPR; Tikhonov regularization.
Data set [6] concerns the molecule itself. Kind of data set: continuous-wave EPR of frozen solution; 120 K, 9.7 GHz; PBS with 20% (wt) glycerol; total peptide 0.3 mM, mixtures equimolar; line broadening against free MTSL, distances from simulation of the spectra.

B1: K (peptide)
peptide: Ac-KIAALKEKIAALKEKIAALKEGW-NH2
notes: designed coiled-coil zipper peptide K; printed as Ac-(KIAALKE)3-GW-NH2, the repeat written out three times; unlabelled peptide added to E-SL in the room-temperature cw-EPR; the details of these samples are in S1 Text; also called K-peptide; peptide K; source: synthetic peptide
B1: the binding result in the data set with E-SL is “binds”.
On to B2, for which the binding result with SL-K [1] and with K-SL [2] was “binds” throughout.

B3: E (peptide)
peptide: Ac-EIAALEKEIAALEKEIAALEKGY-NH2
notes: designed coiled-coil zipper peptide E; printed as Ac-(EIAALEK)3-GY-NH2, the repeat written out three times; unlabelled peptide added to K-SL or SL-K in the room-temperature cw-EPR; the details of these samples are in S1 Text; also called E-peptide; peptide E; source: synthetic peptide
With B3, the binding result in the data set with K-SL [3] and with SL-K [4] was “binds” each time.
With B4, the binding result in data set [5] is given as “binds”.
In the case of B5, in data set [6], the binding result was “binds”.
